According to publication PMC3395085:
Like-named read-outs stand apart in the source and are kept apart here.

Experiments:
Assay in all cases: X-ray crystallography
PFV integrase (IN) [1] = target: T1, PFV integrase (IN) (prototype foamy virus, UniProt P14350 752-1143)
PFV integrase (IN) [2] = target: T1, PFV integrase (IN); remark: listed apart in the source
PFV integrase (IN) [3] = target: T1, PFV integrase (IN); remark: listed apart in the source

B1: 3'-processed viral DNA end (R:N, 17/19-mer), formed in crystallo (dsDNA)
DNA 1: TGCGAAATTCCATGACA
DNA 2: ATTGTCATGGAATTTCGCA
binding result (PFV integrase (IN) [1]): binds

B2: unprocessed U5 viral DNA end, 5'-phosphate on nonreactive strand (dsDNA)
DNA 1: TGCGAAATTCCATGACAAT
DNA 2: ATTGTCATGGAATTTCGCA
modifications: 5'-phosphate on strand 2 (nonreactive)
binding result (PFV integrase (IN) [2]): binds

B3: unprocessed U5 viral DNA end, 19 bp (N:r) (dsDNA)
DNA 1: TGCGAAATTCCATGACAAT
DNA 2: ATTGTCATGGAATTTCGCA
binding result (PFV integrase (IN) [3]): binds
